The results in this text go back to patent US10684273B2, “Use of phosphatidylinositol phosphate-binding material for apoptosis detection” (GIL MEDICAL CENTER, priority 2015, dated 2020).

Entries after “also recorded” stand apart in the source; their conditions may differ.

Test [1] relates to Thioglycollate-elicited peritoneal macrophages (Thio-pMacs). Kind of test: IC-InsP6 absorption by peritoneal macrophages (Prussian blue staining). The class given is cell-based, C57BL/6 mouse. The following applies: compared to non-activated Thio-pMacs; 0 mM to 0.5 mM, 4 hours; concentration-dependent. The method, then: Thioglycollate-elicited peritoneal macrophages (Thio-pMacs) in a C57BL/6 mouse were obtained. Specifically, 2 mL of 3% Brewer thioglycollate medium (Difco, Detroit, Mich., USA) was intraperitoneally injected the mouse, and 3 to 5 days thereafter, the peritoneum of the mouse was washed with cold PBS to recover peritoneal macrophages. The cells were centrifuged at 1,500 rpm for 5 minutes. The resulting pellet was washed 3 times with PBS, resuspended in DMEM medium containing 10% FBS (Gibco), and cultured on the cover glass in a 6-well plate (Nunc, Fisher Scientific) at a density of 1×10^5 cells/mL. The cells were cultured by adhesion culture, and the slides were washed to remove the suspending cells. Then, the adhered Thio-pMacs cells were cultured according to the presence of LPS (0.5 μg/mL) for 6 hours. LPS induces the activation of Thio-pMacs.
After cultivation, the cells were treated with IC-InsP6 (0 mM to 0.5 mM) for 4 hours. The cells were washed with PBS to remove free IC-InsP6, fixed with formalin (10% neutral buffered) for 5 minutes, and stained as described below for the confirmation of intracellular iron absorption. Specifically, the cover glass was placed in a staining solution (5% potassium ferrocyanide and 12% HCl) for 1 hour, washed 3 times with distilled water, and stained with Prussian blue. […]

The test system of test [2] is liver Kupffer cells. Kind of test: phagocytosis of IC-InsP6 by liver Kupffer cells after intra-arterial injection. It counts as in vivo, C57BL/6 mice.
The subject of test [3] is RAW264.7 macrophages. Kind of test: IC-InsP6 absorption by RAW264.7 macrophages. The class given is cell-based. The following applies: treatment concentration-dependent.
Test [4] has as its system PtdIns(3,4,5)P3 externalized on the surface of apoptotic HeLa and CHO cells. Kind of test: binding of recombinant Akt protein to apoptotic cells (confocal microscopy). It counts as cell-based. The following applies: through PH domain; 2 μg protein. The procedure: First, HeLa and CHO cells were treated with 4 μM camptothecin for 6 hours to induce apoptosis, fixed with formalin (10% neutral buffered) for 5 minutes, and washed twice with PBS. Then, the cells were treated with the serum-free protein blocking solution (Dako), and cultured along with 2 μg of recombinant Akt proteins (Millipore) for 30 minutes. Then, the HeLa and CHO cells, which were bound to Akt proteins, were treated with rabbit anti-CD14 antibody (HPA00212; 1:200, Sigma-Aldrich USA) or the anti-Akt pleckstrin homology (PH) domain antibody of monoclonal mouse (05-591, 1:100, Millipore) for 30 minutes, and treated with FITC-labeled secondary antibody for 30 minutes. Then, the resultant was counterstained with DAPI to visualize nuclei, and counterstained with propidium iodide to distinguish apoptotic cells.
(§1) Then, the cells were placed on a microscope and photographed by the Zeiss LSM 710 laser-scanning confocal microscope (Carl Zeiss) with appropriate excitation using a release filter set. The images were photographed using 40× oil immersion lens. The fluorescence intensity of the unprocessed original images was quantified using ZEN 2010 software (Carl Zeiss).

Test [5] deals with apoptotic CHO cells. Kind of test: detection of apoptosis by recombinant PH domain and annexin V (confocal microscopy). It counts as cell-based. The following applies: 4 μM camptothecin 6 hours. The method, then:
(§2) First, apoptosis was induced in CHO cells by treating them with 4 μM camptothecin for 6 hours, and the cells were fixed with formalin (10% neutral buffered) for 5 minutes and washed twice with PBS. Then, the cells were treated with a serum-free protein blocking solution (DAKO) along with the recombinant PH domain prepared in Example 5-1 for 30 minutes. Then, the cells were treated with the anti-Akt PH domain antibody of monoclonal mouse (05-591, 1:100, Millipore) and then treated with FITC-labeled secondary antibody for 30 minutes. Then, the cells were washed with PBS, fixed with formalin (10% neutral buffered) for 5 minutes, and stained. The cells were counterstained with propidium iodide to distinguish apoptotic cells.
(§3) The recombinant annexin V prepared in Example 5-1 was subjected to an experiment in the same manner and analyzed by FACS.
as §1

In test [6] the test system is apoptotic cells. Nature of the test: flow cytometer analysis of apoptosis. The class given is cell-based. The following applies: FIG. 14. The method, then:
as §2, §3
(In flow cytometry, cells or beads pass a laser one at a time.)

Test [7] in a line: protein-lipid overlay assay, other lipids on the strip. It counts as binding. The following applies: mixed with 5 μM CaCl2. The method, then: (§4) To confirm whether the inositol phosphpate groups of various phosphatidylinositol phosphates directly bind to macrophage CD14 receptors, a protein-lipid overlay assay was performed using the full-length recombinant human CD14 proteins and variant CD14 proteins prepared in Example 2-2. PIP strips or PIP arrays were purchased from Echelon Biosciences.
(§5) After culturing a cell membrane for 15 minutes, non-specific bindings to the cell membrane was blocked using TBS-T (50 mM Tris, 0.15 M NaCl, and 0.05% Tween-20, pH 7.4, EDTA-free protease inhibitor cocktail; Roche, Germany) containing 3% BSA. After the blocking, the cell membrane was incubated along with each of the purified recombinant CD14 proteins (100 ρmol) for 30 minutes, washed 3 times with PBS, incubated again with anti-CD14 (rabbit, HPA002127; Sigma-Aldrich), and incubated with horseradish peroxidase (HRP)-labeled secondary antibody (goat; HAF007; R&D Systems) for 30 minutes. The binding was detected using the ImageQuant LAS 4000 (Fujifilm, Japan). As described in Toda et al. (Mol Cell Biol 32, 118, 2012), PIP-affinity bead pulldowns were performed.
To confirm whether the PKCβ1 C2 domain-Myc protein and the inositol phosphpate group in various phosphatidylinositol phosphates directly bind to each other, protein-lipid overlay assay and immunoblotting were performed in the same manner as in Example 2-3. […]

A short description of test [8]: protein-lipid overlay assay and immunoblotting (PIP strips or PIP arrays). The following applies: mixed with 5 μM CaCl2. The class given is binding. The method, then: as §4, §5
To confirm whether the PKCβ1 C2 domain-Myc protein and the inositol phosphpate group in various phosphatidylinositol phosphates directly bind to each other, protein-lipid overlay assay and immunoblotting were performed in the same manner as in Example 2-3. The PIP strip or PIP array was purchased from Echelon Biosciences.
Annexin V, which is known to specifically bind to phosphatidylserine, was subjected to protein-lipid overlay assay and immunoblotting in the same manner as in Example 2-3.

Turning to Iron-Calcium-InsP6 (phytate) [IC-InsP6], the “phagocytosis of IC-InsP6 by LPS-activated Thio-pMacs” value in test [1] was “effective phagocytosis”. For the same molecule, the “phagocytosis of IC-InsP6 by CD14-defective Kupffer cells” value in test [2] (CD14-defective mice, intra-arterial injection) is recorded as “hardly phagocytized”. The “phagocytosis of IC-InsP6 by wild-type Kupffer cells” value in test [2] (wild-type mice) was “effectively phagocytized”. For the same molecule, the “phagocytosis of IC-InsP6 by RAW264.7 macrophages” value in test [3] is reported as “effective phagocytosis”.

For the molecule “recombinant Akt protein: recombinant Akt proteins (Millipore), PH domain-containing protein”, the “binding to PtdIns(3,4,5)P3 externalized on the surface of apoptotic cells” value in test [4] is recorded as “binds; also recorded: can bind”.

B1: PH domain: human Akt PH domain (1st to 144th amino acids) cloned into pET28a, expressed in E. coli, 21 kDa (protein, UniProt P31749 1-144, looked up, fragment)
chain: MSDVAIVKEGWLHKRGEYIKTWRPRYFLLKNDGTFIGYKERPQDVDQREAPLNNFSVAQCQLMKTERPRPNTFIIRCLQWTTVIERTFHVETPEEREEWTTAIQTVADGLKKQEEEEMDFRSGSPSDNSGAEEMEVSLAKPKHR
modifications: PH domain
notes: human Akt PH domain (1st to 144th amino acids) cloned into pET28a, expressed in E. coli, 21 kDa
Consider B1, for which the “binding on the surfaces of apoptotic cells / detection of apoptosis” value in test [5] (FIG. 13) is “bind at different locations from each other”; in test [5] (FIG. 13, listed as recombinant PH domain), “can detect apoptosis”. In addition, the “detection in apoptotic cells by flow cytometer” value in test [6] is recorded as “appeared”.

B2: annexin V: human annexin V (1st to 319th amino acids) cloned into pET28a, expressed in E. coli, 37 kDa (protein, UniProt P08758 1-319, looked up, fragment)
chain: MAQVLRGTVTDFPGFDERADAETLRKAMKGLGTDEESILTLLTSRSNAQRQEISAAFKTLFGRDLLDDLKSELTGKFEKLIVALMKPSRLYDAYELKHALKGAGTNEKVLTEIIASRTPEELRAIKQVYEEEYGSSLEDDVVGDTSGYYQRMLVVLLQANRDPDAGIDEAQVEQDAQALFQAGELKWGTDEEKFITIFGTRSVSHLRKVFDKYMTISGFQIEETIDRETSGNLEQLLLAVVKSIRSIPAYLAETLYYAMKGAGTDDHTLIRVMVSRSEIDLFNIRKEFRKNFATSLYSMIKGDTSGDYKKALLLLCGED
Consider B2, for which the binding to phosphatidylserine entry in test [7] is on record as “did not bind”. In addition, the “binding on the surfaces of apoptotic cells / detection of apoptosis” value in test [5] (FIG. 13) is reported as “bind at different locations from each other”. Besides, in test [6], the “detection in apoptotic cells by flow cytometer” value was “simultaneously detected”. In test [8], the “binding to PI(3,5)P2, PI(4,5)P2, and PI(3,4,5)P3” value is given as “strongest bindings”; the “binding to PI(5)P, PI(3)P, PI(4)P and PI(3,4)P2” value is recorded as “also shown to bind”. Also, the “binding to various kinds of phosphatidylinositol phosphates” value in test [8] (100 ρmol) is given as “shown to bind”.
